Laboratory results: patent US20220348617A1 (published 2022)

Legend:
Notch1 EGF domains 6-13 [1] = biological target: T1, Notch1 EGF domains 6-13 (human, UniProt P46531 218-526); test: SPR; N-EGF3
T1 chain: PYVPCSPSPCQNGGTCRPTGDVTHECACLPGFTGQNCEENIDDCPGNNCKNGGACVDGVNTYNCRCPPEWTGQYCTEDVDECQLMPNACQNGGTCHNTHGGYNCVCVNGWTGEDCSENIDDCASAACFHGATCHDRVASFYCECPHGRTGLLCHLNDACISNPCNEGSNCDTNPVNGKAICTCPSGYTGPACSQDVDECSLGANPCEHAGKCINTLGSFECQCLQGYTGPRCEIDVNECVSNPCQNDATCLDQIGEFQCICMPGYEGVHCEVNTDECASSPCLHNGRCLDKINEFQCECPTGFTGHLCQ

Notch 3 EGF domains 5-12 [2] = biological target: T2, Notch 3 EGF domains 5-12 (human, UniProt Q9UM47 197-505); test: SPR; N-EGF3
T2 chain: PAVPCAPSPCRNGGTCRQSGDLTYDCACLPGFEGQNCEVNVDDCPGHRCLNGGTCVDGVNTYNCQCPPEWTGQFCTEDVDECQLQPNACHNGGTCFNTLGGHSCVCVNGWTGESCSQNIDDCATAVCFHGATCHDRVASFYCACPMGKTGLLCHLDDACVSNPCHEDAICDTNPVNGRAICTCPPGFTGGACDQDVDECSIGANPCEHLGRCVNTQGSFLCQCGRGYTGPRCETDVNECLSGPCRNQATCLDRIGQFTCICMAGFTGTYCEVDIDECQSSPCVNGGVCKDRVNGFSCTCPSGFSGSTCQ

Notch2 EGF domains 6-13 [3] = biological target: T3, Notch2 EGF domains 6-13 (human, UniProt Q04721 221-530); test: SPR; N-EGF3
T3 chain: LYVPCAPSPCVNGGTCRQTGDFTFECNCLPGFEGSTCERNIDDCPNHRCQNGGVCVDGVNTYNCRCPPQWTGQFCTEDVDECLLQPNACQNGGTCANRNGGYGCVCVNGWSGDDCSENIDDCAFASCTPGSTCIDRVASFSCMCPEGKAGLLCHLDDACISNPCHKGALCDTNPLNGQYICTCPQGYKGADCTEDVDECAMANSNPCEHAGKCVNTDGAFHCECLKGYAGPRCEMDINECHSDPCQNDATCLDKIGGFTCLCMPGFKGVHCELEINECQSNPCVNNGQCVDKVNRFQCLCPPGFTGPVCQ

Notch1 EGF domains 6-13 [4] = biological target: T1, Notch1 EGF domains 6-13; test: SPR
Notch 3 EGF domains 5-12 [5] = biological target: T2, Notch 3 EGF domains 5-12; test: SPR
Notch2 EGF domains 6-13 [6] = biological target: T3, Notch2 EGF domains 6-13; test: SPR
hDLL4 site2 = test: SPR; N-EGF3
DLL4.v3 = test: SPR; N-EGF3

B1: wildtype (WT) human DLL4 (ligand)
chain: SGVFQLQLQEFINERGVLASGRPCEPGCRTFFRVCLKHFQAVVSPGPCTFGTVSTPVLGTNSFAVRDDSSGGGRNPLQLPFNFTWPGTFSLIIEAWHAPGDDLRPEALPPDALISKIAIQGSLAVGQNWLLDEQTSTLTRLRYSYRVICSDNYYGDNCSRLCKKRNDHFGHYVCQPDGNLSCLPGWTGEYCQQPICLSGCHEQNGYCSKPAECLCRPGWQGRLCNECIPHNGCRHGTCSTPWQCTCDEGWGGLFCDQDLNYCTHHSPCKNGATCSNSGQRSYTCTCRPGYTGVDCE
Kd (Notch1 EGF domains 6-13 [1]): 17.9 µM | Kd (Notch 3 EGF domains 5-12 [2]): 22.2 µM | Kd (Notch2 EGF domains 6-13 [3]): 35.7 µM | Kd (Notch1 EGF domains 6-13 [4]): 4.04 µM | Kd (Notch 3 EGF domains 5-12 [5]): 10.4 µM | Kd (Notch2 EGF domains 6-13 [6]): 4.99 µM

B2: hNotch 3 (EGF6-13) (receptor)
chain: PAVPCAPSPCRNGGTCRQSGDLTYDCACLPGFEGQNCEVNVDDCPGHRCLNGGTCVDGVNTYNCQCPPEWTGQFCTEDVDECQLQPNACHNGGTCFNTLGGHSCVCVNGWTGESCSQNIDDCATAVCFHGATCHDRVASFYCACPMGKTGLLCHLDDACVSNPCHEDAICDTNPVNGRAICTCPPGFTGGACDQDVDECSIGANPCEHLGRCVNTQGSFLCQCGRGYTGPRCETDVNECLSGPCRNQATCLDRIGQFTCICMAGFTGTYCEVDIDECQSSPCVNGGVCKDRVNGFSCTCPSGFSGSTCQ
Kd (hDLL4 site2): 1.65 µM | Kd (DLL4.v3): 0.0273 µM

B3: hNotch1 (EGF6-13) (receptor)
chain: PYVPCSPSPCQNGGTCRPTGDVTHECACLPGFTGQNCEENIDDCPGNNCKNGGACVDGVNTYNCRCPPEWTGQYCTEDVDECQLMPNACQNGGTCHNTHGGYNCVCVNGWTGEDCSENIDDCASAACFHGATCHDRVASFYCECPHGRTGLLCHLNDACISNPCNEGSNCDTNPVNGKAICTCPSGYTGPACSQDVDECSLGANPCEHAGKCINTLGSFECQCLQGYTGPRCEIDVNECVSNPCQNDATCLDQIGEFQCICMPGYEGVHCEVNTDECASSPCLHNGRCLDKINEFQCECPTGFTGHLCQ
Kd (hDLL4 site2): 0.471 µM | Kd (DLL4.v3): 0.02 µM

B4: hNotch2 (EGF6-13) (receptor)
chain: LYVPCAPSPCVNGGTCRQTGDFTFECNCLPGFEGSTCERNIDDCPNHRCQNGGVCVDGVNTYNCRCPPQWTGQFCTEDVDECLLQPNACQNGGTCANRNGGYGCVCVNGWSGDDCSENIDDCAFASCTPGSTCIDRVASFSCMCPEGKAGLLCHLDDACISNPCHKGALCDTNPLNGQYICTCPQGYKGADCTEDVDECAMANSNPCEHAGKCVNTDGAFHCECLKGYAGPRCEMDINECHSDPCQNDATCLDKIGGFTCLCMPGFKGVHCELEINECQSNPCVNNGQCVDKVNRFQCLCPPGFTGPVCQ
Kd (hDLL4 site2): 3.25 µM | Kd (DLL4.v3): 0.0314 µM
